# Molecular target: SIF binding receptor from human spermatozoa (human (endogenous in spermatozoa))
# Assay: ITC; microreaction calorimeter, titration mode; 1.5 mL receptor (200 μg mL^-1) in the vial, ligand (500 μg mL^-1) in a 250 μL syringe; PBS
substance,measurement,value
Sperm immobilization factor (SIF) from Staphylococcus aureus (natural protein),Ka,1350 M⁻¹
same,dH,-2.84 kcal/mol
same,"heat released (ligand 7.5 × 10^-4 μM, receptor 4.8 × 10^-3 μM)",9.7 mJ
same,"heat released (ligand 15.0 × 10^-4 μM, receptor 4.8 × 10^-3 μM)",9 mJ
same,"heat released (ligand 22.5 × 10^-4 μM, receptor 4.8 × 10^-3 μM)",8.6 mJ
same,"heat released (ligand 30.0 × 10^-4 μM, receptor 4.8 × 10^-3 μM)",5.6 mJ
same,"heat released (ligand 37.5 × 10^-4 μM, receptor 4.8 × 10^-3 μM)",2.3 mJ
same,"heat released (ligand 45.0 × 10^-4 μM, receptor 4.8 × 10^-3 μM)",2.1 mJ
same,"heat released (ligand 52.5 × 10^-4 μM, receptor 4.8 × 10^-3 μM)",2 mJ
